1 molecule from patent publication US20240132617A1 (VISTERRA, published 2024) can be followed below.

The target of the assay is T1, human C3b (human, UniProt P01024 23-667; P01024 749-1663, limits assumed).
T1 construct: C3b is its two-chain fragment (beta chain plus alpha' chain, without C3a); also called complement component 3b
As to the kind of experiment: antibody levels measured by capture on human C3b versus Cynomolgus C3b (FIG. 1C and FIG. 1D). The procedure: In this study, pharmacokinetics of anti-C3b antibodies was determined in non-human primates. First, Ab1 (anti-C3b VHH fused to modified IgG4 Fc) and control Ab (IC12; control antibody) were intravenously administered at 10 mg/kg to Cynomolgus monkeys. Plasma samples were collected pre-administration and at 30 minutes, 6 hr, 24 hr, 48 hr, 120 hr, 336 hr, 456 hr, 672 hr, and 792 hr post administration, and % of antibody remaining was measured.
To confirm that the C3b antibody of the present invention binds to human C3b with high affinity, in addition to Cynomolgus C3b, concentrations of antibodies to human C3b or Cynomolgus C3b were measured.

T1 sequence (P01024 23-667 limits assumed, chain 1 of 2): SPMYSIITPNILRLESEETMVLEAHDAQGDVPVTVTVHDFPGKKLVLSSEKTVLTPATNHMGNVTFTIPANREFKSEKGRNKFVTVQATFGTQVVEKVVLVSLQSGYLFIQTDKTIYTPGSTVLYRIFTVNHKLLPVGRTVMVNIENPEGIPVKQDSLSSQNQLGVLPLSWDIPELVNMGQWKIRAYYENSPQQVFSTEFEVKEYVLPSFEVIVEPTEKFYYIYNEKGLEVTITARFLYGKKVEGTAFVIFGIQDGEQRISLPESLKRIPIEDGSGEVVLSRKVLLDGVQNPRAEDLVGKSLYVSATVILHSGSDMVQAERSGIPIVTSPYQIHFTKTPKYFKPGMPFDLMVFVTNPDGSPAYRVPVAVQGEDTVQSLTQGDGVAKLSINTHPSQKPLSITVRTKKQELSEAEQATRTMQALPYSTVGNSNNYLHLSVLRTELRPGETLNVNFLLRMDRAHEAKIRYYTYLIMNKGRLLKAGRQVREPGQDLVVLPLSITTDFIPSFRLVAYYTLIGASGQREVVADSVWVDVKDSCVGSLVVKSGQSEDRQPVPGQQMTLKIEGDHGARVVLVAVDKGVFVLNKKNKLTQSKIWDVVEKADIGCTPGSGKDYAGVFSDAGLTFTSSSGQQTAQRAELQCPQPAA
T1 sequence (P01024 749-1663 limits assumed, chain 2 of 2): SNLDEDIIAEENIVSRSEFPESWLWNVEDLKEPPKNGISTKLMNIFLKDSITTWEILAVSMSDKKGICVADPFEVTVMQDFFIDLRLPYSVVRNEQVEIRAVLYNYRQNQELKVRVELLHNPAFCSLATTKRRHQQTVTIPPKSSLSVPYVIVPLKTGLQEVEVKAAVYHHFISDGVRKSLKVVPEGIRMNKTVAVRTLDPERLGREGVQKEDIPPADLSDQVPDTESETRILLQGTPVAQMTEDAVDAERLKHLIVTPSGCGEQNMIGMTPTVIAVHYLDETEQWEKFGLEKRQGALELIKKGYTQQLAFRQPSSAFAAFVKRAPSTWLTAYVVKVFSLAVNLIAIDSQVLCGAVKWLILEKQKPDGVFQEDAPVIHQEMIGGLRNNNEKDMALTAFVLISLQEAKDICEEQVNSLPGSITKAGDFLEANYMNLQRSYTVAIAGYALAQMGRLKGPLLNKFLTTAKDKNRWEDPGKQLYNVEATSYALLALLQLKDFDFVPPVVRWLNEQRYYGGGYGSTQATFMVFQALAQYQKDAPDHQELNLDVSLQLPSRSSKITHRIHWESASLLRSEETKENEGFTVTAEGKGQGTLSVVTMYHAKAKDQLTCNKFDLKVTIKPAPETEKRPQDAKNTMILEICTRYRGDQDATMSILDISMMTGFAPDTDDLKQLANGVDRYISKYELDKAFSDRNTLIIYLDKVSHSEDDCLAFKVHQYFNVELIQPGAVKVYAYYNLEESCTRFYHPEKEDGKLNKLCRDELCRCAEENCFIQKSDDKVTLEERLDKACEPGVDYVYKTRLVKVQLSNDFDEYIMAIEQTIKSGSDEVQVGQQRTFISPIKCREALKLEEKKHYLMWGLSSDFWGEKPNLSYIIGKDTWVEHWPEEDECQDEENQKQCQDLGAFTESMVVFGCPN

B1: Ab1 (anti-C3b VHH fused to modified IgG4 Fc) (Fc fusion)
chain: EVQLLESGGGLVQPGGSLRLSCAASGRTFSNYHMGWFRQAPGQGREFVATIIRTGTTIYYADSVKGRFTISRDNSKNTLYLQMNSLRAEDTAVYYCAAATSGWHIKTVTPYEYWGQGTLVTVSSESKYGPPCPPCPAPEVEGGPSVFLFPPKPKDTLMISRTPEVTCVVVGVSQEDPEVQFNWYVDGVEVHNAKTKPREEQFNSTYRVVSVLQVLHVDWLNGKEYKCKVSNKGLPSSIEKTISKAKGQPREPQVYTLPPSQEEMTKNQVSLTCLVKGFYPSDIVVEWESNGQPENNYKTTPPVLDSDGSFFLYSRLTVDKSRWQEGNVFSCSVMHEALHNHYTQKSLSLSLGK
notes: In the assay Ab1 was in plasma of dosed Cynomolgus monkeys; also called anti-C3b Ab1; C3b antibody
Regarding B1, the “fold greater affinity as compared to Cynomolgus C3b” value was ~100 fold.
